What was measured:
CC and CXC chemokines = assay: Chemokine-induced cell migration assays, pooled over chemokines (meta-analysis); type: cell-based, human; conditions: CC chemokines
Protocol: FIG. 16. Effect of HD2 alanine mutations on chemotaxis. […] All experiments were performed as three technical and three biological replicates, and individual data points are indicated, and coloured by the chemokine used. Statistically significant differences (compared to control, coloured blue), using Dunnett's test with correction for multiple comparisons, are indicated by asterisks: ****=P≤0.0001, ***=P≤0.001, **=P≤0.01, *=P≤0.05, n=45 observations per group (three technical and three biological replicates for each chemokine). FIG. 16B, Faceted plots of change in median normalised cell count between alanine mutant and wild-type HD2 peptide obtained in cell migration assays (Y-axis, Δmedian normalised cell count) versus alanine mutated residue (X-axis). Chemokines used for each experiment are indicated in the strip to the right of each plot. Statistically significant differences compared to parental HD2 are shown as red dots. […]
Briefly, cell migration assays use THP1 cells (human monocyte) and primary human buffy coat white cells (consisting of neutrophil granulocytes, monocytes, and lymphocytes), and activated T-cells. […] Assays are performed in 96-well Boyden chambers, and migrated cells counted and characterized using and ATTUNE Flow Cytometer as described. […]

CXCL10 = biological target: T1, CXCL10 (Homo sapiens, UniProt P02778); assay: CXCL10-induced activated T-cell migration, transwell assay; type: cell-based; conditions: dose of 20 μM
T1 construct: purchased Peprotech
T1 sequence (P02778 22-98): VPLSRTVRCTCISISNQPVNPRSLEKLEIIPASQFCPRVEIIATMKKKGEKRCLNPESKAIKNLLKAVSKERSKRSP
Protocol: FIG. 2. […] BK1.2 is described in (Darlot, 2020). […] Chemokines used are indicated by the name, followed in parenthesis by the supplier code (P in supplier code indicates Peprotech). […] All experiments were performed at EC80 doses of indicated chemokine. Data are shown as box-whisker plots of three technical and three biological replicates. Statistically significant differences (compared to control, indicated by #), using Dunnett's test with correction for multiple comparisons, are indicated by asterisks: ****=P≤0.0001, ***=P≤0.001, **=P≤0.01, *=P≤0.05.
FIG. 11. […] Technical replicates are shown as individual data points. […] The response curve (solid blue line) and its 95% confidence interval (grey ribbon) were calculated using a 4-parameter log-logistic plot.
Briefly, cell migration assays use THP1 cells (human monocyte) and primary human buffy coat white cells (consisting of neutrophil granulocytes, monocytes, and lymphocytes), and activated T-cells. THP1 cells and primary monocytes respond to CCL2, CCL3, CCL5, CCL8 and CXCL4, granulocytes to CXCL1 and CXCL8, activated T-cells to CXCL9/10/11. Assays are performed in 96-well Boyden chambers, and migrated cells counted and characterized using and ATTUNE Flow Cytometer as described. […]

B1: EVA4: parental class A tick evasin protein of HD2, expressed in HEK293F cells (protein)
chain: EVPQMTSSSAPDLEEEDDYTAYAPLTCYFTNSTLGLLAPPNCSVLCNSTTTWFNETSPNNASCLLTVDFLTQDAILQENQPYNCSVGHCDNGTCAGPPRHAQCW
For B1, which “inhibition of CC chemokines in dose-response experiments” value (CC and CXC chemokines) is on record?
The value was “inhibited”.

What about the “inhibition of cell migration” value (CXCL10) of the same molecule?
The value was “did not inhibit”.
